In paper PMC8091058, “Distinct intramolecular interactions regulate autoinhibition of vinculin binding in αT-catenin and αE-catenin” (The Journal of Biological Chemistry, 2021):
One block for each binder: values may come before it.

Columns and labels:
Settings in all cases: both partners purified
vinculin D1 (aa 1–259) = biological target: T1, vinculin D1 (aa 1–259) (UniProt P12003 1-259); assay: ITC; vinculin D1 injected into αT-catenin or αE-catenin fragment (or αT-catenin head–β-catenin complex) in the cell; 25 °C; 20 mM Hepes pH 8.0, 150 mM NaCl, 1 mM TCEP
T1 construct: vinculin D1 fragment, aa 1-259, the first 2 four-helix bundles; in pGEX-TEV; also called vinculin aa 1 to 259 (D1); vinculin N-terminus; source: E. coli BL21-Gold, purified (glutathione-agarose, TEV cleavage, Mono Q or Mono S, S200)
T1 sequence (looked up): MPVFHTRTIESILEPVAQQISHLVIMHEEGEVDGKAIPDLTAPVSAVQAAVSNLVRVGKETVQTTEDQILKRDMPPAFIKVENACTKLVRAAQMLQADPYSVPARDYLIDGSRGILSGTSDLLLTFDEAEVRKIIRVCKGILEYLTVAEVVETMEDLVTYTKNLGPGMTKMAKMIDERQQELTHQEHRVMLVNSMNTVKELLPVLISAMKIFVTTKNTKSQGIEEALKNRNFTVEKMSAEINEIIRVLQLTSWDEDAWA

[1] = biological target: T2, αT-catenin N1-N2 (aa 1–259) (Mus musculus, UniProt Q65CL1 1-259); assay: ITC; β-catenin (110-150 μM) or β-catenin–Ncad_(cyto) complex (103-158 μM) injected into αT-catenin fragment in the cell; 25 °C; 20 mM Hepes pH 8.0, 150 mM NaCl, 1 mM TCEP
T2 construct: αT-catenin, Mus musculus, N1-N2, aa 1-259; in pGEX-TEV; also called αT-catenin WT N1-N2; αT-catenin N1-N2 (1–259); source: E. coli BL21-Gold, purified (glutathione-agarose, TEV cleavage, Mono Q or Mono S, S200)
T2 sequence (looked up): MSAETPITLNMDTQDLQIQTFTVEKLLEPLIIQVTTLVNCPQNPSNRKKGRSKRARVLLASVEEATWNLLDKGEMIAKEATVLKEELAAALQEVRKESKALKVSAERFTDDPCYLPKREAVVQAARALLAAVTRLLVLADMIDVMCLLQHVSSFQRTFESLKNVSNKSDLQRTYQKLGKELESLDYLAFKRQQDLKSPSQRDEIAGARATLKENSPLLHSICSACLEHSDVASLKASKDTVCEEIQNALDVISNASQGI

[2] = biological target: T3, αT-catenin head region (aa 1–659) (Mus musculus, UniProt Q65CL1 1-659); assay: as above
T3 construct: αT-catenin, Mus musculus, head region (N- and M-domains), aa 1-659; in pGEX-TEV; also called αT-catenin head (1–659); αT-catenin N1-M3 (aa 1–659); source: E. coli BL21-Gold, purified (glutathione-agarose, TEV cleavage, Mono Q or Mono S, S200)
T3 sequence (looked up): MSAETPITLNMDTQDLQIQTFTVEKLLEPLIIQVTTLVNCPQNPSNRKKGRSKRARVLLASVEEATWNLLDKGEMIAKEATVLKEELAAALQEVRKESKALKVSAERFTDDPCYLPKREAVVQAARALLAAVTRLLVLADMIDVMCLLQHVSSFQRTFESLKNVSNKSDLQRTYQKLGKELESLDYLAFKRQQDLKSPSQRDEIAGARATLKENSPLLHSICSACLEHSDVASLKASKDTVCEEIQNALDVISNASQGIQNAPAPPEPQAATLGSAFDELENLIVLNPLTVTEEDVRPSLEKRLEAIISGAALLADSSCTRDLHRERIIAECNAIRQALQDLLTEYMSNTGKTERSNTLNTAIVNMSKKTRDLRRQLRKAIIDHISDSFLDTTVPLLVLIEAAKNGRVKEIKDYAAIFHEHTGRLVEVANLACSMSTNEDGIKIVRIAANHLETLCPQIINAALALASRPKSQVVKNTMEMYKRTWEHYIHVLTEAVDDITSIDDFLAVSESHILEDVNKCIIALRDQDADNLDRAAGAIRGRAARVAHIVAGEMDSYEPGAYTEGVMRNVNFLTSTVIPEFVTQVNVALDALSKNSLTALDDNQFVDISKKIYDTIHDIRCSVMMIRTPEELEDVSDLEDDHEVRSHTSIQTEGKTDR

Kd (vinculin D1 (aa 1–259)): 31.9 ± 9.1 nM
B1: αE-catenin M1-M2 (aa 273–510) (domain or fragment, Mus musculus, UniProt P26231 273-510, looked up)
chain: GSGGELAYALNNFDKQIIVDPLSFSEERFRPSLEERLESIISGAALMADSSCTRDDRRERIVAECNAVRQALQDLLSEYMGNAGRKERSDALNSAIDKMTKKTRDLRRQLRKAVMDHVSDSFLETNVPLLVLIEAAKNGNEKEVKEYAQVFREHANKLIEVANLACSISNNEEGVKLVRMSASQLEALCPQVINAALALAAKPQSKLAQENMDLFKEQWEKQVRVLTDAVDDITSIDD
notes: αE-catenin, Mus musculus, M1-M2, aa 273-510; in pGEX-TEV; also called αE-catenin M1-M2 (273–510); source: E. coli BL21-Gold, purified (glutathione-agarose, TEV cleavage, Mono Q or Mono S, S200)

dH [1]: -18.9 ± 1 kcal/mol
dH [2]: -27 ± 0.2 kcal/mol
B2: β-catenin–N-cadherin cytoplasmic tail complex (complex)
chain 1: MATQADLMELDMAMEPDRKAAVSHWQQQSYLDSGIHSGATTTAPSLSGKGNPEEEDVDTSQVLYEWEQGFSQSFTQEQVADIDGQYAMTRAQRVRAAMFPETLDEGMQIPSTQFDAAHPTNVQRLAEPSQMLKHAVVNLINYQDDAELATRAIPELTKLLNDEDQVVVNKAAVMVHQLSKKEASRHAIMRSPQMVSAIVRTMQNTNDVETARCTAGTLHNLSHHREGLLAIFKSGGIPALVKMLGSPVDSVLFYAITTLHNLLLHQEGAKMAVRLAGGLQKMVALLNKTNVKFLAITTDCLQILAYGNQESKLIILASGGPQALVNIMRTYTYEKLLWTTSRVLKVLSVCSSNKPAIVEAGGMQALGLHLTDPSQRLVQNCLWTLRNLSDAATKQEGMEGLLGTLVQLLGSDDINVVTCAAGILSNLTCNNYKNKMMVCQVGGIEALVRTVLRAGDREDITEPAICALRHLTSRHQEAEMAQNAVRLHYGLPVVVKLLHPPSHWPLIKATVGLIRNLALCPANHAPLREQGAIPRLVQLLVRAHQDTQRRTSMGGTQQQFVEGVRMEEIVEGCTGALHILARDVHNRIVIRGLNTIPLFVQLLYSPIENIQRVAAGVLCELAQDKEAAEAIEAEGATAPLTELLHSRNEGVATYAAAVLFRMSEDKPQDYKKRLSVELTSSLFRTEPMAWNETADLGLDIGAQGEALGYRQDDPSYRSFHSGGYGQDALGMDPMMEHEMGGHHPGADYPVDGLPDLGHAQDLMDGLPPGDSNQLAWFDTDL
chain 2: MKRRDKERQAKQLLIDPEDDVRDNILKYDEEGGGEEDQDYDLSQLQQPDTVEPDAIKPVGIRRLDERPIHAEPQYPVRSAAPHPGDIGDFINEGLKAADNDPTAPPYDSLLVFDYEGSGSTAGSLSSLNSSSSGGDQDYDYLNDWGPRFKKLADMYGGGDD
notes: β-catenin, Mus musculus, full length; N-cadherin cytoplasmic tail (Ncad_(cyto)); the methods name no plasmid for the N-cadherin tail; also called β-catenin–Ncad_(cyto); β-cat–Ncad_(cyto); source: β-catenin: E. coli BL21-Gold, purified
